Laboratory results: publication PMC6050581 (ACS infectious diseases, 2018)

B1: W2S4 peptide (human CD11a-based) (peptide)
peptide: Ac-YLSGLCYLFRQNLQGPML-NH2
B2: leukotoxin (LtxA) of Aggregatibacter actinomycetemcomitans (natural protein)
chain: MATTTLPNTKQQAAQFANSVADRAKENIDAAKEQLQKALDKLGKTGKKLTLYIPKNYKKGNGLTALIKAAQKLGIEVYHEGKDGPALTNGILNTGKKLLGLTERGLTLFAPELDKWIQGNKHLSNSVGSTGNLTKAIDKVQSVLGTLQAFLNTAFSGMDLDALIKARQNGKNVTDVQLAKASLNLINELIGTISSITNNVDTFSKQLNKLGEALGQVKHFGSFGDKLKNLPKLGNLGKGLGALSGVLSAISAALLLANKDADTATKAAAAAELTNKVLGNIGKAITQYLIAQRAAAGLSTTGPVAGLIASVVSLAISPLSFLGIAKQFDRARMLEEYSKRFKKFGYNGDSLLGQFYKNTGIADAAITTINTVLSAIAAGVGAASAGSLVGAPIGLLVSAITSLISGILDASKQAVFEHIANQLADKIKAWENKYGKNYFENGYDARHSAFLEDSLKLFNELREKYKTENILSITQQGWDQRIGELAGITRNGDRIQSGKAYVDYLKKGEELAKHSDKFTKQILDPIKGNIDLSGIKGSTTLTFLNPLLTAGKEERKTRQSGKYEFITELKVKGRTDWKVKGVPNSNGVYDFSNLIQHAVTRDNKVLEARLIANLGAKDDYVFVGSGSTIVNAGDGYDVVDYSKGRTGALTIDGRNATKAGQYKVERDLSGTQVLQETVSKQETKRGKVTDLLEYRNYKLDYYYTNKGFKAHDELNSVEEIIGSTLRDKFYGSKFNDVFHGHDGDDLIYGYDGDDRLYGDNGNDEIHGGQGNDKLYGGAGNDRLFGEYGNNYLDGGEGDDHLEGGNGSDILRGGSGNDKLFGNQGDDLLDGGEGDDQLAGGEGNDIYVYRKEYGHHTITEHSGDKDKLSLANINLKDVSFERNGNDLLLKTNNRTAVTFKGWFSKPNSSAGLDEYQRKLLEYAPEKDRARLKRQFELQRGKVDKSLNNKVEEIIGKDGERITSQDIDNLFDKSGNKKTISPQELAGLIKNKGKSSSLMSSSRSSSMLTQKSGLSNDISRIISATSGFGSSGKALSASPLQTNNNFNSYANSLATTA

Assays:
[1] = biological target: B2; assay: SPR
[2] = biological target: B1; assay: SPR

| Binder | Kd [1] [nM] | KD relative to the KD of LtxA for the other peptides [2] [fold] |
| --- | --- | --- |
| Ac-TDGSILACDPG-NH2 [W2S2 peptide (human CD11a-based)] | ~10 |  |
| B1 | ~10 |  |
| B2 |  | ~2 |
| Ac-TGHCLP-NH2 [W1S4 peptide (human CD11a-based)] | ~10 |  |
| Ac-VTLRGSNYTSKYLGMTLATDP-NH2 [W2S1 peptide (human CD11a-based)] | ~10 |  |
| Ac-LSRTCDQNT-NH2 [W2S3 peptide (human CD11a-based; identical in murine CD11a)] | ~10 |  |
